The values that follow are results of earlier work, collected in patent US20150050259A1, “NUTRACEUTICAL MODULATORS OF STEM CELL ACTIVITY” (Creative Medical Health Inc., priority 2011, published 2015).

For data set [1] the following is noted: patients after intensive chemotherapy.
For data set [2] the following is noted: stroke patients.
For data set [3] the following is noted: 114 patients, 56 treated and 58 control.
For data set [4] the following is noted: acute stroke patients.
The mark [5] stands for this setting: between baseline and 12-month follow-up.
[6] abbreviates: 2.5, 5, or 10 μg/kg G-CSF for 5 consecutive days.

For “GH: growth hormone, a 191-amino acid, single chain polypeptide hormone naturally produced by the anterior pituitary”, in data set [1], the “abnormal growth or acromegaly after treatment” value is on record as “no abnormal growth or acromegaly was observed”. The “recovery of platelets to 25×10(9)/l, median time” value in data set [1] (P=0.03 versus placebo) is listed as 16 days.

B1: G-CSF: Granulocyte colony stimulating factor, cytokine drug used for neutropenia and mobilization of hematopoietic stem cells (protein, UniProt P09919 31-207, looked up)
Granulocyte …: TPLGPASSLPQSFLLKCLEQVRKIQGDGAALQEKLVSECATYKLCHPEELVLLGHSLGIPWAPLSSCPSQALQLAGCLSQLHSGLFLYQGLLQALEGISPELGPTLDTLQLDVADFATTIWQQMEELGMAPALQPTQGAMPAFASAFQRRAGGVLVASHLQSFLEVSYRVLRHLAQP
In the case of B1, in data set [2] (setting [5]), the “BI: change in the mean group score” value is listed as 120%, the “EMS: change in the mean group score” value was 106%, the “ESS: change in the mean group score” value is 33% and the “NIHSS: change in the mean group score” value is 59%. Moreover, in data set [2], the “adverse effects as a result of treatment” value is “no serious adverse effects”. The “increase of CD34s over normal” value (subcutaneous G-CSF) was 20 fold. Besides, the safety of administration result (subcutaneous G-CSF 10 μg/kg for 6 days, revascularized STEMI patients) is recorded as “safe”. Also, the “influence on infarct size, left ventricular function, or coronary restenosis” value in data set [3] is listed as “no influence on infarct size, left ventricular function, or coronary restenosis”. For the same molecule, in data set [4] (setting [6]), the “increase in the leukocyte count” value is reported as “up to 75,500 /μl” and the “mobilization of CD34(+) cells” value is reported as “Mobilization of CD34(+) cells was observed”. In addition, the “G-CSF toxicity in neuroradiological and neuropsychological follow-up” value in data set [4] is reported as “did not disclose any specific G-CSF toxicity”.
